# Measurements published in patent US9206457B2, “Utilization of pharmacological chaperones to improve manufacturing and purification of biologics” (Amicus Therapeutics, Inc., priority 2009, dated 2015).
# T1: acid β-glucosidase (GCase; Cerezyme®) (Homo sapiens, UniProt P04062, R534H)
# T1 construct: purchased Genzyme Corp
# T1 sequence (P04062 40-536 R534H): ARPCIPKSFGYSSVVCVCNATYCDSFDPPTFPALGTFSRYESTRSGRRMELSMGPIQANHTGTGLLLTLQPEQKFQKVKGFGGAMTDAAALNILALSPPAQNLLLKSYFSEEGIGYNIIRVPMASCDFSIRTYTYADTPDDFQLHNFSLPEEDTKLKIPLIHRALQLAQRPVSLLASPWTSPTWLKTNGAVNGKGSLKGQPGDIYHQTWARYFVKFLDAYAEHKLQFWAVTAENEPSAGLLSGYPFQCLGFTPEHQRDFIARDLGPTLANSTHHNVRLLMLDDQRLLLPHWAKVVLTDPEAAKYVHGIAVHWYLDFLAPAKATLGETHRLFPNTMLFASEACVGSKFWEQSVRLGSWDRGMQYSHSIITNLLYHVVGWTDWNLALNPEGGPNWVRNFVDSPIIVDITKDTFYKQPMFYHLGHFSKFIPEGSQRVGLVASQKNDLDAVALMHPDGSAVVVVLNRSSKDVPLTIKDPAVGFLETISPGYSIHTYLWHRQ
# T2: recombinant human GCase (Cerezyme®) (Homo sapiens, UniProt P04062, R534H)
# T2 construct: purchased Genzyme Corp
# T2 sequence (P04062 40-536 R534H): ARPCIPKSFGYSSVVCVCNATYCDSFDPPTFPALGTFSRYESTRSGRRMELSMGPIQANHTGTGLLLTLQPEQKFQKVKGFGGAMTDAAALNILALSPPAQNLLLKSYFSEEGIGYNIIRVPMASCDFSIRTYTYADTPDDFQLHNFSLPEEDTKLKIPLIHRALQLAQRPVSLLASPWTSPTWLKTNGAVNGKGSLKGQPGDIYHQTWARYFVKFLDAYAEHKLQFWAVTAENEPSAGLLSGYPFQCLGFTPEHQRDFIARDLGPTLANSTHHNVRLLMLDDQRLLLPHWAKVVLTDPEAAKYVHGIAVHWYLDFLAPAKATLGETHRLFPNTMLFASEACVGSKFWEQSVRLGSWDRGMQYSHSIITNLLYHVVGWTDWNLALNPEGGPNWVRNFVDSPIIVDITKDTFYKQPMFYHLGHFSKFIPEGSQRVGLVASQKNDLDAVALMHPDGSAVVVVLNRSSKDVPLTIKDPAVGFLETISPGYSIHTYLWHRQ
# What was measured:
# [1] = target: T1, acid β-glucosidase (GCase; Cerezyme®); test: SYPRO Orange thermal stability assay (heat denaturation) of GCase; format: binding; conditions: pH 5.2 versus pH 7.4, no chaperone
# Experimental: FIG. 4 depicts the results of a thermal stability assay that utilizes heat to induce protein denaturation, which is monitored using a SYPRO Orange dye that fluoresces upon binding to hydrophobic amino acids (which are not exposed in a folded protein). Isofagomine increases acid β-glucosidase thermostability as evident by increases in melting temperature in a dose-dependent manner. The experiment was conducted at pH 7.4.
# FIG. 8 depicts the stability of recombinant human GCase (Cerazyme®, Genzyme Corp.) at neutral pH (7.4) or acidic pH (5.2) in the presence or absence of 10 μM of IFG as determined in a thermal stability assay. The thermal stability assay utilizes heat to induce protein denaturation, which is monitored using a SYPRO Orange dye that fluoresces upon binding to hydrophobic amino acids (which are not exposed in a folded protein).
# A thermal stability experiment as generally described in Example 1 was performed on three compositions of GCase (Cerezyme®):
# A thermal stability experiment as generally described in Examples 1 and 4 was performed on three compositions of GCase (Cerezyme®):
# Protein denaturation was monitored using SYPRO Orange dye which fluoresces when bound to exposed hydrophobic amino acids.
# [2] = target: T2, recombinant human GCase (Cerezyme®); test: GCase activity in human plasma at 37° C. (4-MUG); format: in vitro ADME; conditions: human plasma, 0.5 μM GCase, no chaperone
# Experimental: FIG. 10 depicts the effects of IFG on recombinant human GCase (GCase; Cerezyme®, Genzyme Corp.) activity in human plasma at 37° C. GCase activity was evaluated to assess the ability of an ASSC to prolong the activity of GCase in human plasma over time. Cerezyme (0.5 μM) was incubated in human plasma with increasing concentrations of IFG (3 μM, 30 μM, or 100 μM) at 37° C. over 4 hours. Samples were assayed for GCase enzyme activity using 4-MU-β-glucose at 0.25, 0.5, 1, 2 and 4 hours and the residual GCase activity was expressed as % of initial activity.
# The activity of GCase (0.5 μM; Cerazyme®) at 37° C. in human plasma was assessed for increasing concentrations of IFG (3 μM, 30 μM, and 100 μM) as a function time using the substrate 4-MUG.
molecule,measurement,setting,value
"GCase: recombinant human GCase (Cerezyme®, Genzyme Corp.) (protein, UniProt P04062 40-536, looked up, imiglucerase) Lysosomal acid …: ARPCIPKSFGYSSVVCVCNATYCDSFDPPTFPALGTFSRYESTRSGRRMELSMGPIQANHTGTGLLLTLQPEQKFQKVKGFGGAMTDAAALNILALSPPAQNLLLKSYFSEEGIGYNIIRVPMASCDFSIRTYTYADTPDDFQLHNFSLPEEDTKLKIPLIHRALQLAQRPVSLLASPWTSPTWLKTNGAVNGKGSLKGQPGDIYHQTWARYFVKFLDAYAEHKLQFWAVTAENEPSAGLLSGYPFQCLGFTPEHQRDFIARDLGPTLANSTHHNVRLLMLDDQRLLLPHWAKVVLTDPEAAKYVHGIAVHWYLDFLAPAKATLGETHRLFPNTMLFASEACVGSKFWEQSVRLGSWDRGMQYSHSIITNLLYHVVGWTDWNLALNPEGGPNWVRNFVDSPIIVDITKDTFYKQPMFYHLGHFSKFIPEGSQRVGLVASQKNDLDAVALMHPDGSAVVVVLNRSSKDVPLTIKDPAVGFLETISPGYSIHTYLWRRQ",Stability of GCase at acidic versus neutral pH (thermal stability assay),[1],more stable at acidic (lysosomal) pH than at neutral pH
same,Time by which GCase is completely inactive,[2],≤ 1 h
same,Time by which most GCase is inactivated,[2],≤ 30 min
